Here are results for three molecules from patent US20240368300A1 (UCME BIOSCIENCE S R L, published 2024).

In general, Kd refers to the equilibrium constant for the complex coming apart.

Experiment [1] concerns the target T1, recombinant soluble human CD93 extracellular domain fused to a 6xHis tag (human, UniProt Q9NPY3 24-580).
T1 construct: extracellular domain; also called recombinant CD93; soluble CD93 protein
T1 sequence: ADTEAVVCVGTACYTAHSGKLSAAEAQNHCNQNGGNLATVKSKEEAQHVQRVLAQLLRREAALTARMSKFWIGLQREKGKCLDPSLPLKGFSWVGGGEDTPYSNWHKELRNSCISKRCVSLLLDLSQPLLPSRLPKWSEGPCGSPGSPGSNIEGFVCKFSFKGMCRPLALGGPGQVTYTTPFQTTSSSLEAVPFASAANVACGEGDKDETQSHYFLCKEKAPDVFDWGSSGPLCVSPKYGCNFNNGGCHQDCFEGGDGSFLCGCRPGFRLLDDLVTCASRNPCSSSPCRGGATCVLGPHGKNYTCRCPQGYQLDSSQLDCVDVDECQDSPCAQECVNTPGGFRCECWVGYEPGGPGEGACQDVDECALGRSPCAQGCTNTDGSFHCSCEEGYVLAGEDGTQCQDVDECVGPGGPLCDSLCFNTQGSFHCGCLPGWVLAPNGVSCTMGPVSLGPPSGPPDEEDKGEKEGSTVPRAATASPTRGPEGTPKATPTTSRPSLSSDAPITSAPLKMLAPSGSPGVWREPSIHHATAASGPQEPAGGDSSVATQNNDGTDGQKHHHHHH
Nature of the experiment: SPR (BIAcore), 4E1 immobilized on chip, recombinant CD93 injected, 1:1 fit. Here is the method:
The binding analysis was performed using a BIAcore 3000 equipped with a CM5 sensor chip. Briefly, 4E1 antibody was immobilized via amine groups on a CM5 sensor chip following standard procedures (flow rate 5 μl/min). For the immobilization, 4E1 diluted in 10 mM Na acetate pH 4.0 at the concentration of 10 μg/ml was injected for 360 sec over the dextran matrix on flow cell, which had been previously activated with a mixture of EDC-NHS for 420 sec. After injection of the antibody, a pulse of Ethanolamine 1M was performed to neutralize activated groups. A reference flow cell to be used as blank, was simultaneously subjected to identical procedures, but the injection of Antibody, which was substituted with injection of dilution buffer alone (HBS-EP+). Recombinant purified CD93 protein was diluted in HBS-EP+ at different concentration (1 μg/ml, 2.5 μg/ml, […] and 20 μg/ml) and injected for 180 s at a flow rate of 60 μl/min on flow cell 4 and on reference flow cell 3. […] Sensorgrams illustrated in the figure are obtained by subtraction from sensorgrams on Fc4 of those obtained on Fc3. Kinetic rates were calculated applying a 1:1 binding as fitting model using the Bia T200 evaluation software 2.0.1
On the technique in general: SPR reads the build-up and loss of mass on a sensor chip optically.

Experiment [2] addresses T2, human full-length CD93 (human, UniProt Q9NPY3 22-652).
T2 construct: whole, on cells; Used in two settings; also called human CD93 protein
T2 sequence (looked up): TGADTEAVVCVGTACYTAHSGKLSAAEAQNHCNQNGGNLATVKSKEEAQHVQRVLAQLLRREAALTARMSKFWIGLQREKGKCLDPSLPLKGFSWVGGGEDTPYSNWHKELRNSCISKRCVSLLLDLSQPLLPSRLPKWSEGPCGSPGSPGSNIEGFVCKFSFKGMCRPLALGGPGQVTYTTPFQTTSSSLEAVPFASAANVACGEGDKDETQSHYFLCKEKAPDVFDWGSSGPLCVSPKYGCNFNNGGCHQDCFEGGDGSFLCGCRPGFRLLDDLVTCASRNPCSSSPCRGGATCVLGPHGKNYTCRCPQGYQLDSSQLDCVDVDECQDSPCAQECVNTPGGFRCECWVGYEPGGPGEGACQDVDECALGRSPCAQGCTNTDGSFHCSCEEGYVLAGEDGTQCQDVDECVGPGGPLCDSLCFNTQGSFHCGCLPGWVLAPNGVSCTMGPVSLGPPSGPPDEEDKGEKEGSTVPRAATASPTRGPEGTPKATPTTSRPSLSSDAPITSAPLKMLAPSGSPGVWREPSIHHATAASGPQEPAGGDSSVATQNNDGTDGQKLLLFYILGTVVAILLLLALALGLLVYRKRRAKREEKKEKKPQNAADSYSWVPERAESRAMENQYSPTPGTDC
Nature of the experiment: immunofluorescence on fixed, permeabilized late spreading HUVECs. The method, then: Zip Alexa Fluor Rapid Antibody Labeling kit (Thermo Fisher Scientific) was used to efficiently and quickly label the mAb 4E1 with Alexa Fluor 488 following the manufacturer's instructions. Briefly, 10 μl of 1 M sodium bicarbonate solution were added to 100 μl of 4E1 solution (1 mg/ml). Next, the antibody solution was incubated for 15 min at room temperature with the fluorochrome solution (Component B) and used in immunofluorescence experiments.
Cells were seeded onto gelatin-coated glass coverslips and fixed in 3% paraformaldehyde for 15 min at room temperature during the late spreading phase. Samples were permeabilized with 0.1% Triton X-100 in PBS, and blocked with 0.3% w/v BSA in PBS, each for 15 min at room temperature. Next, cells were washed with PBS and incubated 1 h at room temperature with Alexa Fluor 488-labeled 4E1 and rabbit anti-MMRN2 antibodies. Then, samples were washed three times with PBS/0.1% Tween-20 and incubated with secondary Alexa Fluor 568-labeled anti-rabbit antibodies (Thermo Fisher Scientific), diluted at 25 μg/mL in PBS/0.1% Tween-20. After washing, coverslips were mounted with Mowiol mounting medium. Fluorescent images were captured using a Leica TCS SP2 AOBS confocal laser-scanning microscope and overlaid images were produced. A Leica HCX PL APO Ibd.BL 63×/1.40 oil objective was used. […]

Experiment [3] concerns the target T1, recombinant soluble human CD93 …. Nature of the experiment: SPR (BIAcore), rec4E1 immobilized on chip, recombinant CD93 injected, 1:1 fit. The method, then: The binding analysis was performed using a BIAcore 3000 equipped with a CM5 sensor chip. Briefly, rec4E1 or 4E1 antibodies were immobilized via amine groups on a CM5 sensor chip following standard procedures. For the immobilization, the antibody diluted in 10 mM Na acetate pH 4.0 at the concentration of 10 μg/ml was injected for 360 sec over the dextran matrix on flow cell, which had been previously activated with a mixture of EDC-NHS for 420 sec. After injection of the antibody, a pulse of Ethanolamine 1 M was used to neutralize activated groups. A reference flow cell to be used as blank was simultaneously subjected to identical procedures, but the antibody was substituted with dilution buffer (HBS-EP+). Recombinant purified CD93 protein was diluted in HBS-EP+ at different concentration (10, 25, 50, 100, 250, and 500 ng/mL) and injected for 180 s at a flow rate of 60 μl/min on all flow cells. […] Kinetic rates were calculated applying a 1:1 binding as fitting model using the Bia T200 evaluation software 2.0.1.

B1: anti-CD93 monoclonal antibody 4E1 (from hybridoma) (antibody, IgG1, V domains shown)
VH: QEQLQQPGTELVKPGASVRLSCKTSGYTFASYTLHWVKQTPGQGLDWIGAIYPGNGDTSYNQKFKDKATLTADKSSSTAYMQLSNLTSEDSAVYYCARLDWYFDLWGAGTTVTVS
VL: DIVLTQSPTSLAVSLGQRATISCKASQSVDYDGDSYMNWYQQKPGQPPRLLIYAASNLESGIPARFSGSGSGTDFTLNIHPVEEEDAATYYCQQNNEDPRTFGGGTKLEIK
notes: Mouse hybridoma antibody, full length, isotype IgG1 with k light chain; also called mAb 4E1; anti-CD93 4E1 mAb
Turning to B1, in experiment [1], the Kd amounted to 0.45 nM.

B2: Alexa Fluor 488-labeled 4E1 (antibody, V domains shown)
VH: QEQLQQPGTELVKPGASVRLSCKTSGYTFASYTLHWVKQTPGQGLDWIGAIYPGNGDTSYNQKFKDKATLTADKSSSTAYMQLSNLTSEDSAVYYCARLDWYFDLWGAGTTVTVS
VL: DIVLTQSPTSLAVSLGQRATISCKASQSVDYDGDSYMNWYQQKPGQPPRLLIYAASNLESGIPARFSGSGSGTDFTLNIHPVEEEDAATYYCQQNNEDPRTFGGGTKLEIK
modifications: Alexa Fluor 488 dye conjugated to the antibody (site and chain not stated)
notes: mAb 4E1 (mouse IgG1 k) labelled with the Zip Alexa Fluor Rapid Antibody Labeling kit; also called conjugated 4E1
Consider B2, for which the binding result in experiment [2] was “binds”.

B3: recombinant anti-CD93 monoclonal antibody rec4E1 (antibody, V domains shown)
VH: QEQLQQPGTELVKPGASVRLSCKTSGYTFASYTLHWVKQTPGQGLDWIGAIYPGNGDTSYNQKFKDKATLTADKSSSTAYMQLSNLTSEDSAVYYCARLDWYFDLWGAGTTVTVS
VL: DIVLTQSPTSLAVSLGQRATISCKASQSVDYDGDSYMNWYQQKPGQPPRLLIYAASNLESGIPARFSGSGSGTDFTLNIHPVEEEDAATYYCQQNNEDPRTFGGGTKLEIK
notes: Whole recombinant IgG1 expressed in CHO cells from the pTRIOZ vector; The light chain constant region is not described; also called recombinant 4E1
As to B3, the equilibrium dissociation constant (Kd) in experiment [3] was found to be 0.00509 nM.
